Source: patent publication US20200317739

Assays:
[1] = system: truncated FBP1^1-443 protein
[2] = system: truncated FBP1^185-443 protein
[3] = system: truncated FBP1^372-644 protein
[4] = system: truncated FBP1^185-644 protein
[5] = system: truncated FBP1^1-371 protein

purified recombinant EV71 viral protease wild-type 2A^pro
in vitro proteinase cleavage assay (10 ug 2A^pro, 37 C, 4 hours) (FBP1-G366K): in comparison with FBP1-G364K, FBP1-G366K, FBP1-G374K and FBP1-G375K, FBP1-G371K could not be cleaved by 2A^pro | in vitro proteinase cleavage assay (10 ug 2A^pro, 37 C, 4 hours) (FBP1-G364-380K): but not on mutant FBP1-G364-380K | in vitro proteinase cleavage assay (10 ug 2A^pro, 37 C, 4 hours) (FBP1-G375K): in comparison with FBP1-G364K, FBP1-G366K, FBP1-G374K and FBP1-G375K, FBP1-G371K could not be cleaved by 2A^pro | in vitro proteinase cleavage assay of truncated FBP1 proteins [1]: FBP1^1-443, FBP1^185-644 and FBP1^185-443 containing the Gly-371 cleavage site were cleaved by 2A^pro; a 38-kDa cleavage product was yielded from FBP1^1-443 | in vitro proteinase cleavage assay of truncated FBP1 proteins [2]: FBP1^1-443, FBP1^185-644 and FBP1^185-443 containing the Gly-371 cleavage site were cleaved by 2A^pro; 19-kDa cleavage product | in vitro proteinase cleavage assay (10 ug 2A^pro, 37 C, 4 hours) (FBP1-G364K): in comparison with FBP1-G364K, FBP1-G366K, FBP1-G374K and FBP1-G375K, FBP1-G371K could not be cleaved by 2A^pro | in vitro proteinase cleavage assay (10 ug 2A^pro, 37 C, 4 hours) (FBP1-G374K): in comparison with FBP1-G364K, FBP1-G366K, FBP1-G374K and FBP1-G375K, FBP1-G371K could not be cleaved by 2A^pro | in vitro proteinase cleavage assay (10 ug 2A^pro, 37 C, 4 hours) (FBP1-G345-362K): in vitro 2A^pro cleavage occurs on mutant FBP1-G345-362K | in vitro proteinase cleavage assay of truncated FBP1 proteins [3]: both truncated FBP1^1-371 and FBP1^372-644 proteins were not cleaved by 2A^pro | in vitro proteinase cleavage kinetics of [35S] methionine-labeled FBP1 (data not shown) (wild-type FBP1 protein): Cp-N and Cp-C were detected after 15 minutes of incubation with 2A^pro, and the levels of Cp-N and Cp-C increased over the 4 hours of incubation | in vitro proteinase cleavage of [35S] methionine-labeled FBP1 (SDS-PAGE, autoradiography) (wild-type FBP1 protein): FBP1 was cleaved by 2A^pro in a dose-dependent manner that resulted in two major Cps, a 38-kDa Cp designated as Cp-N, and a 33-kDa Cp designated as Cp-C | in vitro proteinase cleavage assay of truncated FBP1 proteins [4]: FBP1^1-443, FBP1^185-644 and FBP1^185-443 containing the Gly-371 cleavage site were cleaved by 2A^pro; 19-kDa cleavage product, and FBP1^185-644 also yielded a 33-kDa product | in vitro proteinase cleavage assay (10 ug 2A^pro, 37 C, 4 hours) (FBP1-G371K): FBP1-G371K could not be cleaved by 2A^pro, as shown by the absence of Cp-N and Cp-C cleavage products | in vitro proteinase cleavage assay of truncated FBP1 proteins [5]: both truncated FBP1^1-371 and FBP1^372-644 proteins were not cleaved by 2A^pro
